Reference: US12099068B2, “Biomarkers for graft-versus-host disease” (Incyte Corporation, priority 2018, dated 2024)
“And” between values parts separate entries of the source, which are not always exact repeats. Equal values may be shown once.

Tested on: plasma proteins
Experiment: Plasma proteins modulated between baseline and day 28 in responders (CR, VGPR, PR; n = 19), Example 6 (Table 13)
Type: in vivo, human
Details: plasma protein (OLINK NPX); responders (CR, VGPR, PR; n = 19); itacitinib 200 mg or 300 mg QD with corticosteroids; day 28 vs baseline
Method in brief: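 Longitudinal comparison, day 28 versus baseline, with steroid-naive (N=10) and steroid-refractory (N=18) patients combined. Proteins measured by OLINK proximity extension, log2 normalized protein expression. Differences tested by t tests, ANOVA, Pearson correlation, P<0.05 significant.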

Row | Molecule | Fold Change, Decreased Expression from Baseline to Day 28 | Fold Change, Increased Expression from Baseline to Day 28
1 | CD79B (protein, UniProt P40259 29-229, looked up) B-cell antigen receptor …: ARSEDRYRNPKGSACSRIWQSPRFIARKRGFTVKMHCYMNSASGNVSWLWKQEMDENPQQLKLEKGRMEESQNESLATLTIQGIRFEDNGIYFCQQKCNNTSEVYQGCGTELRVMGFSTLAQLKQRNTLKDGIIMIQTLLIILFIIVPIFLLLDKDDSKAGMEEDHTYEGLDIDQTATYEDIVTLRTGEVKWSVGEHPGQE | −1.2372 | 
2 | NADK (protein, UniProt O95544 1-446, looked up) NAD kinase: MEMEQEKMTMNKELSPDAAAYCCSACHGDETWSYNHPIRGRAKSRSLSASPALGSTKEFRRTRSLHGPCPVTTFGPKACVLQNPQTIMHIQDPASQRLTWNKSPKSVLVIKKMRDASLLQPFKELCTHLMEENMIVYVEKKVLEDPAIASDESFGAVKKKFCTFREDYDDISNQIDFIICLGGDGTLLYASSLFQGSVPPVMAFHLGSLGFLTPFSFENFQSQVTQVIEGNAAVVLRSRLKVRVVKELRGKKTAVHNGLGENGSQAAGLDMDVGKQAMQYQVLNEVVIDRGPSSYLSNVDVYLDGHLITTVQGDGVIVSTPTGSTAYAAAAGASMIHPNVPAIMITPICPHSLSFRPIVVPAGVELKIMLSPEARNTAWVSFDGRKRQEIRHGDSISITTSCYPLPSICVRDPVSDWFESLAQCLHWNVRKKQAHFEEEEEEEEEG | −1.3493 | 
3 | TNFRSF6B (protein, UniProt O95407 30-300, looked up) Tumor necrosis factor …: VAETPTYPWRDAETGERLVCAQCPPGTFVQRPCRRDSPTTCGPCPPRHYTQFWNYLERCRYCNVLCGEREEEARACHATHNRACRCRTGFFAHAGFCLEHASCPPGAGVIAPGTPSQNTQCQPCPPGTFSASSSSSEQCQPHRNCTALGLALNVPGSSSHDTLCTSCTGFPLSTRVPGAEECERAVIDFVAFQDISIKRLQRLLQALEAPEGWGPTPRAGRAALQLKLRRRLTELLGAQDGALLVRLLQALRVARMPGLERSVRERFLPVH | −1.3504 | 
4 | TRANCE (protein, UniProt O14788 140-317, looked up) Tumor necrosis factor ligand …: IRAEKAMVDGSWLDLAKRSKLEAQPFAHLTINATDIPSGSHKVSLSSWYHDRGWAKISNMTFSNGKLIVNQDGFYYLYANICFRHHETSGDLATEYLQLMVYVTKTSIKIPSSHTLMKGGSTKYWSGNSEFHFYSINVGGFFKLRSGEEISIEVSNPSLLDPDQDATYFGAFKVRDID | −1.4034 | 
5 | KIM1 (protein, UniProt Q96D42 21-364, looked up) Hepatitis A virus cellular …: SVKVGGEAGPSVTLPCHYSGAVTSMCWNRGSCSLFTCQNGIVWTNGTHVTYRKDTRYKLLGDLSRRDVSLTIENTAVSDSGVYCCRVEHRGWFNDMKITVSLEIVPPKVTTTPIVTTVPTVTTVRTSTTVPTTTTVPMTTVPTTTVPTTMSIPTTTTVLTTMTVSTTTSVPTTTSIPTTTSVPVTTTVSTFVPPMPLPRQNHEPVATSPSSPQPAETHPTTLQGAIRREPTSSPLYSYTTDGNDTVTESSDGLWNNNQTQLFLEHSLLTANTTKGIYAGVCISVLVLLALLGVIIAKKYFFKKEVQQLSVSFSSLQIKALQNAVEKEVQAEDNIYIENSLYATD |  | 1.7741 and 1.757
6 | ZBTB17 (protein, UniProt Q13105 1-803, looked up) Zinc finger and BTB …: MDFPQHSQHVLEQLNQQRQLGLLCDCTFVVDGVHFKAHKAVLAACSEYFKMLFVDQKDVVHLDISNAAGLGQVLEFMYTAKLSLSPENVDDVLAVATFLQMQDIITACHALKSLAEPATSPGGNAEALATEGGDKRAKEEKVATSTLSRLEQAGRSTPIGPSRDLKEERGGQAQSAASGAEQTEKADAPREPPPVELKPDPTSGMAAAEAEAALSESSEQEMEVEPARKGEEEQKEQEEQEEEGAGPAEVKEEGSQLENGEAPEENENEESAGTDSGQELGSEARGLRSGTYGDRTESKAYGSVIHKCEDCGKEFTHTGNFKRHIRIHTGEKPFSCRECSKAFSDPAACKAHEKTHSPLKPYGCEECGKSYRLISLLNLHKKRHSGEARYRCEDCGKLFTTSGNLKRHQLVHSGEKPYQCDYCGRSFSDPTSKMRHLETHDTDKEHKCPHCDKKFNQVGNLKAHLKIHIADGPLKCRECGKQFTTSGNLKRHLRIHSGEKPYVCIHCQRQFADPGALQRHVRIHTGEKPCQCVMCGKAFTQASSLIAHVRQHTGEKPYVCERCGKRFVQSSQLANHIRHHDNIRPHKCSVCSKAFVNVGDLSKHIIIHTGEKPYLCDKCGRGFNRVDNLRSHVKTVHQGKAGIKILEPEEGSEVSVVTVDDMVTLATEALAATAVTQLTVVPVGAAVTADETEVLKAEISKAVKQVQEEDPNTHILYACDSCGDKFLDANSLAQHVRIHTAQALVMFQTDADFYQQYGPGGTWPAGQVLQAGELVFRPRDGAEGQPALAETSPTAPECPPPAE | −1.2333 | 
7 | Flt3L (protein, UniProt P49771 27-235, looked up) Fms-related tyrosine kinase 3 …: TQDCSFQHSPISSDFAVKIRELSDYLLQDYPVTVASNLQDEELCGGLWRLVLAQRWMERLKTVAGSKMQGLLERVNTEIHFVTKCAFQPPPSCLRFVQTNISRLLQETSEQLVALKPWITRQNFSRCLELQCQPDSSTLPPPWSPRPLEATAPTAPQPPLLLLLLLPVGLLLLAAAWCLHWQRTRRRTPRPGEQVPPVPSPQDLLLVEH |  | 2.3423
8 | TNFRSF14 (protein, UniProt Q92956 39-283, looked up) Tumor necrosis factor …: LPSCKEDEYPVGSECCPKCSPGYRVKEACGELTGTVCEPCPPGTYIAHLNGLSKCLQCQMCDPAMGLRASRNCSRTENAVCGCSPGHFCIVQDGDHCAACRAYATSSPGQRVQKGGTESQDTLCQNCPPGTFSPNGTLEECQHQTKCSWLVTKAGAGTSSSHWVWWFLSGSLVIVIVCSTVGLIICVKRRKPRGDVVKVIVSVQRKRQEAEGEATVIEALQAPPDVTTVAVEETIPSFTGRSPNH | −1.2658 | 
9 | BANK1 (protein, UniProt Q8NDB2 1-785, looked up) B-cell scaffold protein with …: MLPAAPGKGLGSPDPAPCGPAPPGNTKDIIMIYEEDAEEWALYLTEVFLHVVKREAILLYRLENFSFRHLELLNLTSYKCKLLILSNSLLRDLTPKKCQFLEKILHSPKSVVTLLCGVKSSDQLYELLNISQSRWEISTEQEPEDYISVIQSIIFKDSEDYFEVNIPTDLRAKHSGEISERKEIEELSEASRNTIPLAVVLPTEIPCENPGEIFIILRDEVIGDTVEVEFTSSNKRIRTRPALWNKKVWCMKALEFPAGSVHVNVYCDGIVKATTKIKYYPTAKAKECLFRMADSGESLCQNSIEELDGVLTSIFKHEIPYYEFQSLQTEICSQNKYTHFKELPTLLHCAAKFGLKNLAIHLLQCSGATWASKMKNMEGSDPAHIAERHGHKELKKIFEDFSIQEIDINNEQENDYEEDIASFSTYIPSTQNPAFHHESRKTYGQSADGAEANEMEGEGKQNGSGMETKHSPLEVGSESSEDQYDDLYVFIPGADPENNSQEPLMSSRPPLPPPRPVANAFQLERPHFTLPGTMVEGQMERSQNWGHPGVRQETGDEPKGEKEKKEEEKEQEEEEDPYTFAEIDDSEYDMILANLSIKKKTGSRSFIINRPPAPTPRPTSIPPKEETTPYIAQVFQQKTARRQSDDDKFCGLPKKQDRARIESPAFSTLRGCLTDGQEELILLQEKVKNGKMSMDEALEKFKHWQMGKSGLEMIQQEKLRQLRDCIIGKRPEEENVYNKLTIVHHPGGKETAHNENKFYNVHFSNKLPARPQVEKEFGFCCKKDH | −2.0084 | 
10 | AMIGO2 (protein, UniProt Q86SJ2 40-522, looked up) Amphoterin-induced protein 2: VCPTACICATDIVSCTNKNLSKVPGNLFRLIKRLDLSYNRIGLLDSEWIPVSFAKLNTLILRHNNITSISTGSFSTTPNLKCLDLSSNKLKTVKNAVFQELKVLEVLLLYNNHISYLDPSAFGGLSQLQKLYLSGNFLTQFPMDLYVGRFKLAELMFLDVSYNRIPSMPMHHINLVPGKQLRGIYLHGNPFVCDCSLYSLLVFWYRRHFSSVMDFKNDYTCRLWSDSRHSRQVLLLQDSFMNCSDSIINGSFRALGFIHEAQVGERLMVHCDSKTGNANTDFIWVGPDNRLLEPDKEMENFYVFHNGSLVIESPRFEDAGVYSCIAMNKQRLLNETVDVTINVSNFTVSRSHAHEAFNTAFTTLAACVASIVLVLLYLYLTPCPCKCKTKRQKNMLHQSNAHSSILSPGPASDASADERKAGAGKRVVFLEPLKDTAAGQNGKVRLFPSEAVIAEGILKSTRGKSDSDSVNSVFSDTPFVAST | −1.1962 | 
11 | FES (protein, UniProt P07332 1-822, looked up) Tyrosine-protein kinase …: MGFSSELCSPQGHGVLQQMQEAELRLLEGMRKWMAQRVKSDREYAGLLHHMSLQDSGGQSRAISPDSPISQSWAEITSQTEGLSRLLRQHAEDLNSGPLSKLSLLIRERQQLRKTYSEQWQQLQQELTKTHSQDIEKLKSQYRALARDSAQAKRKYQEASKDKDRDKAKDKYVRSLWKLFAHHNRYVLGVRAAQLHHQHHHQLLLPGLLRSLQDLHEEMACILKEILQEYLEISSLVQDEVVAIHREMAAAAARIQPEAEYQGFLRQYGSAPDVPPCVTFDESLLEEGEPLEPGELQLNELTVESVQHTLTSVTDELAVATEMVFRRQEMVTQLQQELRNEEENTHPRERVQLLGKRQVLQEALQGLQVALCSQAKLQAQQELLQTKLEHLGPGEPPPVLLLQDDRHSTSSSEQEREGGRTPTLEILKSHISGIFRPKFSLPPPLQLIPEVQKPLHEQLWYHGAIPRAEVAELLVHSGDFLVRESQGKQEYVLSVLWDGLPRHFIIQSLDNLYRLEGEGFPSIPLLIDHLLSTQQPLTKKSGVVLHRAVPKDKWVLNHEDLVLGEQIGRGNFGEVFSGRLRADNTLVAVKSCRETLPPDLKAKFLQEARILKQYSHPNIVRLIGVCTQKQPIYIVMELVQGGDFLTFLRTEGARLRVKTLLQMVGDAAAGMEYLESKCCIHRDLAARNCLVTEKNVLKISDFGMSREEADGVYAASGGLRQVPVKWTAPEALNYGRYSSESDVWSFGILLWETFSLGASPYPNLSNQQTREFVEKGGRLPCPELCPDAVFRLMEQCWAYEPGQRPSFSTIYQELQSIRKRHR | −1.4934 | 
12 | CLEC1A (protein, UniProt Q8NC01 1-280, looked up) C-type lectin domain family 1 …: MQAKYSSTRDMLDDDGDTTMSLHSQGSATTRHPEPRRTEHRAPSSTWRPVALTLLTLCLVLLIGLAALGLLFFQYYQLSNTGQDTISQMEERLGNTSQELQSLQVQNIKLAGSLQHVAEKLCRELYNKAGAHRCSPCTEQWKWHGDNCYQFYKDSKSWEDCKYFCLSENSTMLKINKQEDLEFAASQSYSEFFYSYWTGLLRPDSGKAWLWMDGTPFTSELFHIIIDVTSPRSRDCVAILNGMIFSKDCKELKRCVCERRAGMVKPESLHVPPETLGEGD | −1.2841 | 
